The values below come from PMC8532158.

Assay in all cases: yeast surface display affinity sorting with deep sequencing (deep mutational scanning); BPTI single and double mutant library on yeast, sorted by FACS into four affinity gates (HI, WT, SL, LO) for each protease; NGS enrichments converted into ΔΔG_bind by a normalization formula fitted on ΔΔG_bind values of purified proteins
For experiment [1], the target named is BPTI K15R displayed on the yeast surface (bovine).
Experiment [2] has as its target BPTI K15A displayed on the yeast surface (bovine).
For experiment [3], the target named is BPTI A16S displayed on the yeast surface (bovine).

Consider bovine trypsin (enzyme), for which the values for the ΔΔG bind against BPTI WT in experiment [1], in experiment [2] and in experiment [3] were -1.4 kcal/mol, 11.1 kcal/mol and 4.5 kcal/mol, respectively.
